In patent publication US20100056764A1 (Novo Nordisk, published 2010):
Where “and” joins values, the source holds several entries; their conditions need not be identical. Equal values may be shown once. Read-outs that look alike come from different tables or passages of the source. One block for each binder: values may come before it.

Key:
[1] = biological target: T1, cynomolgous monkey NKG2D on NK, CD8+ T and gamma-delta T cells (cynomolgous monkey (Macaca fascicularis), UniProt P61252 1-216); test: flow cytometry, cynomolgous gamma-delta T cells (Gd) in PBMC, anti-human IgG4 detection
T1 construct: whole, on cells; Target on cynomolgous PBMC and whole blood cells; also called cynomologous NKG2D; cyno NKG2D
T1 sequence (looked up): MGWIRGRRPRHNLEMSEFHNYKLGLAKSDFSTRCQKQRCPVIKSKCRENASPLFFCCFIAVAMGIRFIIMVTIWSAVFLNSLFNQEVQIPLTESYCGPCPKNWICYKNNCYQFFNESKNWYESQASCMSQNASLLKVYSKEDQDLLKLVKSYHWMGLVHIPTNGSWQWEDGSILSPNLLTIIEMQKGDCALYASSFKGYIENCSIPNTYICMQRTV
Procedure: (§1) Briefly, incubation with antibody was performed at 4° C. for 30 min followed by washing, then directly labelled secondary anti-hIgG4 antibody was added and incubated for 30 min at 4° C. along with antibodies specific for the various cell populations of interest, CD8, CD4, NK and γδ-T cells, then the cells were washed twice in PBS with 2% FCS and the red blood cell lysed. The cells were then analyzed by flow cytometry and binding to the different cell populations assessed.

[2] = biological target: T2, human NKG2D (hNKG2D) on the cell surface (human, UniProt P26718 1-216); test: flow cytometry blocking assay on NKG2D/DAP10-expressing BaF/3 cells: pre-incubation with the antibody, then 1 µg MICA-mFc; y axis % remaining MICA-Fc binding
T2 construct: Carried by BaF/3 cells co-transfected with full-length NKG2D and DAP10, or naturally by human NK, CD8+ T and gamma-delta T cells (PBMC, whole blood); also called cell-surface NKG2D; NKG2D- and DAP10-expressing BaF/3 cells
T2 chain: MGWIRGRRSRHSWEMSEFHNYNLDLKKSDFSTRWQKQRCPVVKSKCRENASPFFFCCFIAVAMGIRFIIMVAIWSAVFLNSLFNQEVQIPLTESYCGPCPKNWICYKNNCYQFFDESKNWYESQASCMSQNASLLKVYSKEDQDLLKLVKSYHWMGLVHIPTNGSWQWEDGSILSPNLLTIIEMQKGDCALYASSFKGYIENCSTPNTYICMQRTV
Procedure: (§2) Flow cytometry assays—MICA blockade. […] The cells were then analysed on a B&D FACSArray flow cytometer. The degree of reduction of MICA binding by preincubation was analysed as MFI (mean fluorescence intensity) of binding with pre-incubation in % of binding of MICA without preincubation.

[3] = biological target: T2, human NKG2D (hNKG2D) on the cell surface; test: flow cytometry, NKG2D/DAP10 BaF/3 cells pre-incubated with antibody, then 1 µg MICA-mFc (competitor)
Procedure: as §2

[4] = biological target: T2, human NKG2D (hNKG2D) on the cell surface; test: flow cytometry, human gamma-delta T cells (Gd) in PBMC, anti-human IgG4 detection
Procedure: as §1

[5] = biological target: T2, human NKG2D (hNKG2D) on the cell surface; test: flow cytometry, human NK cells in PBMC, anti-human IgG4 detection
Procedure: as §1

[6] = biological target: T2, human NKG2D (hNKG2D) on the cell surface; test: flow cytometry, human CD8 T cells in PBMC, anti-human IgG4 detection
Procedure: as §1

[7] = biological target: T2, human NKG2D (hNKG2D) on the cell surface; test: flow cytometry, dose-response on NKG2D- and DAP10-expressing BaF/3 cells
[8] = biological target: T3, recombinant NKG2D-Fc protein (R&D Systems), immobilized on a Biacore CM5 chip (human, UniProt P26718 78-216); test: SPR (Biacore), NKG2D-Fc immobilized on CM5 chip at 400 RU, antibody in solution, Langmuir fit
T3 construct: also called NKG2D-hFc; hFc-NKG2D; not shown: Fc portion of the purchased fusion protein
T3 sequence: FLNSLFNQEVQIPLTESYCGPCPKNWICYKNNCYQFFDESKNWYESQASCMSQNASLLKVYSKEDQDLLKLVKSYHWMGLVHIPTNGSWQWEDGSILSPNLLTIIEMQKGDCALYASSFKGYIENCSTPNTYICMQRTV
Procedure: Surface plasmon resonance measurements were performed on a Biacore 1000 upgrade apparatus (Biacore GE Healthcare; Biacore Upgrade CA0396) at 25° C. In all Biacore experiments HBS-EP buffer (Biacore GE Healthcare; BR-1001-88) served as running buffer and sensorgrams were analyzed with Biaevaluation 4.1 software.
Protein immobilisation. […] Recombinant NKG2D-Fc proteins were immobilized covalently to carboxyl groups in the dextran layer on a Sensor Chip CM5 (Biacore GE Healthcare; BR-1000-14). The sensor chip surface was activated with EDC/NHS (N-ethyl-N′-(3-dimethylaminopropyl)carbodiimidehydrochloride and N-hydroxysuccinimide (Biacore GE Healthcare; BR-1000-50)). […] Deactivation of the remaining activated groups was performed using 100 mM ethanolamine pH 8 (Biacore GE Healthcare; BR-1000-50).
[…] The resulting sensorgrams were analysed by global fitting using the Langmuir model. The dissociation constant (KD) was calculated as KD=kd/ka.

[9] = biological target: T2, human NKG2D (hNKG2D) on the cell surface; test: flow cytometry, NKG2D/DAP10 BaF/3 cells pre-incubated with antibody, then 1 µg MICA-mFc (competitor)
Procedure: as §2

[10] = biological target: T2, human NKG2D (hNKG2D) on the cell surface; test: cell-based or functional assay
[11] = biological target: T1, cynomolgous monkey NKG2D on NK, CD8+ T …; test: flow cytometry, cynomolgous NK cells in PBMC, anti-human IgG4 detection
Procedure: as §1

[12] = biological target: T1, cynomolgous monkey NKG2D on NK, CD8+ T …; test: flow cytometry, CD8 T cells; reference is 21F2 on human cells
Procedure: as §1

[13] = biological target: T1, cynomolgous monkey NKG2D on NK, CD8+ T …; test: flow cytometry, cynomolgous CD8 T cells in PBMC, anti-human IgG4 detection
Procedure: as §1

[14] = biological target: T1, cynomolgous monkey NKG2D on NK, CD8+ T …; test: flow cytometry, gamma-delta T cells (Gd); reference is 21F2 on human cells
Procedure: as §1

[15] = biological target: T1, cynomolgous monkey NKG2D on NK, CD8+ T …; test: flow cytometry, NK cells; reference is 21F2 on human cells
Procedure: as §1

EC50 [1]: 0.0464 µg/mL
IC50 (read off the curve) [2]: ~4 pM
Full blockade of 1 µg MICA-Fc (antibody concentration) [3]: 0.16 µg/mL
IC50 [3]: 0.0063 µg/mL
EC50 [4]: 0.0572 µg/mL
EC50 [5]: 0.0712 µg/mL
EC50 [6]: 0.0605 µg/mL
EC50 [7]: 0.033 µg/mL and 0.023 nM
Kd [8]: 77.9 pM
koff [8]: 0.000144 s⁻¹
kon [8]: 1.85e+06 M⁻¹ s⁻¹
IC50 [9]: 4.8 pM
EC50 [11]: 0.0475 µg/mL
relative EC50, cynomolgous to human cells (%) [12]: 71.9%
EC50 [13]: 0.0435 µg/mL
relative EC50, cynomolgous to human cells (%) [14]: 81.1%
relative EC50, cynomolgous to human cells (%) [15]: 66.7%
B1: 21F2, fully human anti-hNKG2D monoclonal antibody, recombinantly expressed as IgG4 isotype (antibody, V domains shown)
VH: EVQLVQSGAEVKEPGESLKISCKNSGYSFTNYWVGWVRQMPGKGLEWMGIIYPGDSDTRYSPSFQGQVTISADKSINTAYLQWSSLKASDTAMYYCGRLTMFRGIIIGYFDYWGQGTLVTVSS
VL: EIVLTQSPATLSLSPGERATLSCRASQSVSSYLAWYQQKPGQAPRLLIYDASNRATGIPARFSGSGSGTDFTLTISSLEPEDFAVYYCQQRSNWPWTFGQGTKVEIKR
notes: also called 21F2 IgG4; 21F2 (IgG4)
EC50 (µg/ml), inhibition of NK cell killing of ULPB3-expressing target cells (51Cr release) [10]: 0.021 µg/mL

IC50 (read off the curve) [2]: ~2 pM
B2: MS, fully human anti-hNKG2D monoclonal antibody, recombinantly expressed as IgG4 isotype (antibody, V domains shown)
VH: QVHLQESGPGLVKPSETLSLTCTVSDDSISSYYWSWIRQPPGKGLEWIGHISYSGSANYNPSLKSRVTISVDTSKNQFSLKLSSVTAADTAVYYCANWDDAFNIWGQGTMVTVSS
VL: not shown
notes: also called MS IgG4; MS (IgG4)
